Experimental data taken from article PMC2805098 (Biochemistry, 2009).
Where two headings read alike, the source gives them in different places.

Columns and labels:
[1] = Midpoint potential determination, xanthine/xanthine oxidase reducing system; assay type: physicochemical, Escherichia coli; conditions: two-electron, pH 7.2, 25 °C, reference dye phenosafranine
[2] = pH 7.2, 25 °C; cited from earlier work

Row | Molecule | Midpoint Potential [1] [mV] | Midpoint Potential [2] [mV]
1 | Phe223Leu (protein, UniProt P0AEZ1 1-296, looked up, variant F223L) 5,10-methylenetetrahydrofolate …: MSFFHASQRDALNQSLAEVQGQINVSFEFFPPRTSEMEQTLWNSIDRLSSLKPKFVSVTYGANSGERDRTHSIIKGIKDRTGLEAAPHLTCIDATPDELRTIARDYWNNGIRHIVALRGDLPPGSGKPEMYASDLVTLLKEVADFDISVAAYPEVHPEAKSAQADLLNLKRKVDAGANRAITQFFFDVESYLRFRDRCVSAGIDVEIIPGILPVSNFKQAKKLADMTNVRIPAWMAQMFDGLDDDAETRKLVGANIAMDMVKILSREGVKDFHFYTLNRAEMSYAICHTLGVRPGL | −240 ± 3 | –
2 | Phe223Ala: Phe223Ala mutant of histidine-tagged E. coli methylenetetrahydrofolate reductase (protein, UniProt P0AEZ1 1-296, looked up, variant F223A, histidine tag) 5,10-methylenetetrahydrofolate …: MSFFHASQRDALNQSLAEVQGQINVSFEFFPPRTSEMEQTLWNSIDRLSSLKPKFVSVTYGANSGERDRTHSIIKGIKDRTGLEAAPHLTCIDATPDELRTIARDYWNNGIRHIVALRGDLPPGSGKPEMYASDLVTLLKEVADFDISVAAYPEVHPEAKSAQADLLNLKRKVDAGANRAITQFFFDVESYLRFRDRCVSAGIDVEIIPGILPVSNFKQAKKAADMTNVRIPAWMAQMFDGLDDDAETRKLVGANIAMDMVKILSREGVKDFHFYTLNRAEMSYAICHTLGVRPGL | −236 ± 3 | –
3 | Wild-type: wild-type histidine-tagged E. coli methylenetetrahydrofolate reductase (protein, UniProt P0AEZ1 1-296, looked up, histidine tag) 5,10-methylenetetrahydrofolate …: MSFFHASQRDALNQSLAEVQGQINVSFEFFPPRTSEMEQTLWNSIDRLSSLKPKFVSVTYGANSGERDRTHSIIKGIKDRTGLEAAPHLTCIDATPDELRTIARDYWNNGIRHIVALRGDLPPGSGKPEMYASDLVTLLKEVADFDISVAAYPEVHPEAKSAQADLLNLKRKVDAGANRAITQFFFDVESYLRFRDRCVSAGIDVEIIPGILPVSNFKQAKKFADMTNVRIPAWMAQMFDGLDDDAETRKLVGANIAMDMVKILSREGVKDFHFYTLNRAEMSYAICHTLGVRPGL | – | −237 ± 4
